The values below come from article PMC2107256 (The Journal of Cell Biology, 1967).

Experiment in all cases: AUC
Data set [1] concerns the target 22S protein of the mitotic apparatus, Arbacia punctulata (Arbacia punctulata).
Data set [2] has the same target. The source holds these as a separate data set.
Data set [3] shares this target. This is another data set of the same source.
Data set [4] has the same target. This is another data set of the same source.
Data set [5] has the same target. The source holds these as a separate data set.
Data set [6] has the same target. This is another data set of the same source.
The target of data set [7] is 22S protein of the mitotic apparatus, Strongylocentrotus droebachiensis (Strongylocentrotus droebachiensis).
Data set [8] has the same target. The source holds these as a separate data set.
For data set [9] the target is unchanged. The source holds these as a separate data set.
Data set [10] deals with the molecule itself.
Data set [11] concerns the molecule itself. This is another data set of the same source.

Several values for one entry are separate records, joined by “and”; a condition that tells them apart may be missing. Equal values may be shown once. Read-outs that look alike come from different tables or passages of the source.

A word on the stoichiometry N: it is a count of units in the complex or per binding partner. With “22S protein of the mitotic apparatus, Arbacia punctulata (natural protein)”, the stoichiometry N in data set [1] was 4 and 2 and 6; in data set [2], 2; in [3], 2; in [4] it was 2; in data set [5], 8; in [6] it was 6 and 4 and 2.

Consider “22S protein of the mitotic apparatus, Strongylocentrotus droebachiensis (natural protein)”, for which the stoichiometry N in data set [7] was found to be 2; in data set [8] it was 2; in data set [9], 8.

B1: 22S protein of the mitotic apparatus, Strongylocentrotus purpuratus (natural protein)
chain: VPSGSLGSRPGTCPPQPSDQVMIEATRCSYVYGLTWDWNCNSQGQENYKCCQYENDIRICVPPIPADVDEEVGVEQPSQSVDQVRQAIQKTQDFIRKVGLYPAPDQRRRTTPTPDTVRWCVSSRCQMTKCQRMVSEFTYSPNMVPRKQWKCTQATSQEQCMFWIEQGWADIMTTREGQVYSANTTFNLKPIAYETTINDQQPEIQILKHYQNVTFALKSSRLVNPNTFSELRDKTTCHAGIDMPDFDMPASFADPVCNLIKEGVIPVTGNYIESFSDFVQESCVPGVLNMTYNKNGTYPLSLVTLCEDQQYKYSGIKGALSCLESGKGQVTFVDQKVIKKIMSDPNVRDNFQVVCRDESRPLDEEIFTDVTCHVGHTARPTIFINKNNTQQKETDIKTLVVKMMELYGNTDRDVNFNIFDSSVYDCGKCQMTGKPLNKNLIFLEESNTMKIVDDSKVYAGEVYAAYNVCSKLVPKPRAKICVTNVTEYEACRRFKGIAENIPEVKKVAWGCVLANSSIECMQAVHNNTADLFKANPMETFIAGKEFLLDPLMSVHRNDSVTMNHTYTRTLAVIKRSSLAKFPGLLSVPEGQPKYIKDLWKLKICSAGLKNFSAFHSPIGYLLANGTIPRIGSVFESVNRYFQATCVPEIEPETWRLDSDLLLGREMNWGFSSLNMYNFTGQEWLLWNTPATWNFLTYNRKVSTGLDIKKLIELKKQNLTSHIFNQNLSSPRNVELLDDLVGVEGISDLVKGVQDTIGPEGKQKMNMLRDRLSNSFPNFEAVRTLSDKVDIVNKMKDARQQRLQNKDHPFGNVIQETFQGHLMVDVFSKLLELRSDKISTLEEIISHVKTIPYLTDFKDVEITTVLKHPAIMSYVEIYFPRLSQTFVEPFDNVELREREFNRYTNPLWLSPKVHTYLDLVKNHQTEITKTCNSNLPLNFKGYEGALRCLKSGVADLASSTSRPSVTRTLRDTDLSTGWVHLQRPPPSLPQRQVVEIDVNMDIAKVCNFGEVMNPVLVTAYNTSGSWRWNITKALMIAHQSVALPALFGEGTVMGKDYDMLLPIAPLNQSYQPFLGSKPLRSMEAIVKASSYDWFKDQTGICYGETYTNIVKQRNETCQAIVKDVTCVGTPRMKKISVGRFGAKQFKMIKMCSRPSKFVRKMADFQCDNGFGYLKPVITAVACECMLCEEMIEYNTSFTEDNMWSDVSNKYVLTGEQDIYRQIPIWGNNSYFYDHTLNKNFELGNHSIIVEHVQTVVVERPSPGILSQVNSEVDPEVQVQMDSASLTKTCETVWNGQSWLPERFQGYKTSGSCVVPETGANAKSRVDRFRQIMQRKQQLVDHHH
modifications: carbohydrate 5-6% (orcein assay) or 7-8% (anthrone test), several per cent glucosamine; sites not stated
Consider B1, for which the “stoichiometry N” value in “AUC [10]” came to 8; in “AUC [11]” it was 2.
